This data set concerns the molecule itself. Kind of data set: Native PAGE, self-association; the cell continues below as 'dimer ~7 forms visible from monomer to multimer'. The text has this:
Native PAGE was run for information of rhGALC formations at neutral pH. […] Final product TG1106 was compared to rhGALC in-house standard StG03 and the pattern was similar. It could be that the lowest band (apparent MW 80-100 kDa) is rhGALC monomer and the second band is rhGALC dimer, followed by formations adding on more rhGALC monomers and/or dimers. Up to seven forms of rhGALC were visualized on the gel. rhGALC dimer was the most pronounced independent on load. An earlier electron microscopy study has verified that several forms exist of which the major form has a diameter of ˜20 nm, which could correspond to rhGALC dimer.

B1: recombinant human Galactocerebroside beta-Galactosidase (rhGALC), full length 80 kDa form (enzyme)
chain: YVLDDSDGLGREFDGIGAVSGGGATSRLLVNYPEPYRSQILDYLFKPNFGASLHILKVEIGGDGQTTDGTEPSHMHYALDENYFRGYEWWLMKEAKKRNPNITLIGLPWSFPGWLGKGFDWPYVNLQLTAYYVVTWIVGAKRYHDLDIDYIGIWNERSYNANYIKILRKMLNYQGLQRVKIIASDNLWESISASMLLDAELFKVVDVIGAHYPGTHSAKDAKLTGKKLWSSEDFSTLNSDMGAGCWGRILNQNYINGYMTSTIAWNLVASYYEQLPYGRCGLMTAQEPWSGHYVVESPVWVSAHTTQFTQPGWYYLKTVGHLEKGGSYVALTDGLGNLTIIIETMSHKHSKCIRPFLPYFNVSQQFATFVLKGSFSEIPELQVWYTKLGKTSERFLFKQLDSLWLLDSDGSFTLSLHEDELFTLTTLTTGRKGSYPLPPKSQPFPSTYKDDFNVDYPFFSEAPNFADQTGVFEYFTNIEDPGEHHFTLRQVLNQRPITWAADASNTISIIGDYNWTNLTIKCDVYIETPDTGGVFIAGRVNKGGILIRSARGIFFWIFANGSYRVTGDLAGWIIYALGRVEVTAKKWYTLTLTIKGHFASGMLNDKSLWTDIPVNFPKNGWAAIGTHSFEFAQFDNFLVEATR
modifications: glycosylated (about 7% carbohydrate w:w, 2-3 mol mannose-6-phosphate per mol), sites not stated
notes: Expressed in CHO cells and purified from harvest; P45803 looks like a misprint; also called Galactocerebrosidase; Galactosylceramidase
B1: the binding result is given as “binds”.

Source of the values: US20180112202A1 (ACE BIOSCIENCES A S, published 2018).
